US20210380703A1

The binders below were run against Human Fc (human) (assay: ELISA; negative control).

optical density [OD] | Binder
0.353 | 366_F07 (antibody, V domains shown) VH: EVQLLESGGGLVQPGGSLRLSCAASGFTFSDYSMNWVRQAPGKGLEWVAGINYNSGYTSYADSVKGRFTISRDNSKNTLYLQMNSLRAEDTAVYYCARSANWHDTHLDYWGQGTLVTVSS VL: DIQMTQSPSSLSASVGDRVTITCRASQSIITYLNWYQQKPGKAPKLLIYAATSRASGVPSRFSGSGSGTDFTLTISSLQPEDFATYYCQQSYETPLTFGGGTKVEIK
0.417 | 366_H08 (antibody, V domains shown) VH: EVQLLESGGGLVQPGGSLRLSCAASGFTFSDYGMNWVRQAPGKGLEWVASINYNSGYTSYADSVKGRFTISRDNSKNTLYLQMNSLRAEDTAVYYCARSANWHDTHLDYWGQGTLVTVSS VL: DIQMTQSPSSLSASVGDRVTITCRASQSILSYVNWYQQKPGKAPKLLIYAATSRHSGVPSRFSGSGSGTDFTLTISSLQPEDFATYYCQQSYNNPLTFGGGTKVEIK
0.28 | 366_G05 (antibody, V domains shown) VH: EVQLLESGGGLVQPGGSLRLSCAASGFTFDSYGMNWVRQAPGKGLEWVSNINYNGGYTSYADSVKGRFTISRDNSKNTLYLQMNSLRAEDTAVYYCARSANWHDTALDYWGQGTLVTVSS VL: DIQMTQSPSSLSASVGDRVTITCRASQSIISYVNWYQQKPGKAPKLVIYAATSRASGVPSRFSGSGSGTDFTLTISSLQPEDFATYYCQQSYENPLTFGGGTKVEIK
0.37 | 367_B08 (antibody, V domains shown) VH: EVQLLESGGGLVQPGGSLRLSCAASGFTFSDYGMNWVRQAPGKGLEWVSGINYNGGYKGYADSVKGRFTISRDNSKNTLYLQMNSLRAEDTAVYYCARSANWHDTALDYWGQGTLVTVSS VL: DIQMTQSPSSLSASVGDRVTITCRASQSILTYLNWYQQKPGKAPKLVIYAATSRASGVPSRFSGSGSGTDFTLTISSLQPEDFATYYCQQSYDNPLTFGGGTKVEIK
0.285 | 366_H06 (antibody, V domains shown) VH: EVQLLESGGGLVQPGGSLRLSCAASGFTFSSYGMNWVRQAPGKGLEWVSSINYNGGYTGYADSVKGRFTISRDNSKNTLYLQMNSLRAEDTAVYYCARSANWHDTALDYWGQGTLVTVSS VL: DIQMTQSPSSLSASVGDRVTITCRASQSILSYLNWYQQKPGKAPKLLIYATTSRASGVPSRFSGSGSGTDFTLTISSLQPEDFATYYCQQSYDTPLTFGGGTKVEIK
0.236 | 367_B07 (antibody, V domains shown) VH: EVQLLESGGGLVQPGGSLRLSCAASGFTFSDYSMNWVRQAPGKGLEWVAGINYNSGYTGYADSVKGRFTISRDNSKNTLYLQMNSLRAEDTAVYYCARSANWHDTHLDYWGQGTLVTVSS VL: DIQMTQSPSSLSASVGDRVTITCRASQSIISYVNWYQQKPGKAPKLLIYAATSLASGVPSRFSGSGSGTDFTLTISSLQPEDFATYYCQQSYNLPLTFGGGTKVEIK
0.31 | 366_G04 (antibody, V domains shown) VH: EVQLLESGGGLVQPGGSLRLSCAASGFTFSSYSMNWVRQAPGKGLEWVSGINYNSGYTSYADSVKGRFTISRDNSKNTLYLQMNSLRAEDTAVYYCARSANWHDTALDYWGQGTLVTVSS VL: DIQMTQSPSSLSASVGDRVTITCRASQSIITYLNWYQQKPGKAPKLLIYAATSRASGVPSRFSGSGSGTDFTLTISSLQPEDFATYYCQQSDDTPLTFGGGTKVEIK
0.285 | 366_H07 (antibody, V domains shown) VH: EVQLLESGGGLVQPGGSLRLSCAASGFTFSSYGMHWVRQAPGKGLEWVSGINYNGGYTSYADSVKGRFTISRDNSKNTLYLQMNSLRAEDTAVYYCARSANWHDTALDYWGQGTLVTVSS VL: DIQMTQSPSSLSASVGDRVTITCRASQSIISYVNWYQQKPGKAPKLVIYAVTSRASGVPSRFSGSGSGTDFTLTISSLQPEDFATYYCQQSYENPLTFGGGTKVEIK
0.318 | 367_B03 (antibody, V domains shown) VH: EVQLLESGGGLVQPGGSLRLSCAASGFTFSSYGMNWVRQAPGKGLEWVAGINYNGGYKSYADSVKGRFTISRDNSKNTLYLQMNSLRAEDTAVYYCARSANWHDTALDYWGQGTLVTVSS VL: DIQMTQSPSSLSASVGDRVTITCRASQSILTYLNWYQQKPGKAPKLLIYAATSLASGVPSRFSGSGSGTDFTLTISSLQPEDFATYYCQQSYNLPLTFGGGTKVEIK
0.267 | 367_A04 (antibody, V domains shown) VH: EVQLLESGGGLVQPGGSLRLSCAASGFTFSSYSMNWVRQAPGKGLEWVSNINYNSGYKSYADSVKGRFTISRDNSKNTLYLQMNSLRAEDTAVYYCARSANWHDTALDYWGQGTLVTVSS VL: DIQMTQSPSSLSASVGDRVTITCRASQSIITYLNWYQQKPGKAPKLLIYAATSRASGVPSRFSGSGSGTDFTLTISSLQPEDFATYYCQQSDDSPLTFGGGTKVEIK
0.269 | 367_A05 (antibody, V domains shown) VH: EVQLLESGGGLVQPGGSLRLSCAASGFTFSDYGMNWVRQAPGKGLEWVSSINYNGGYKGYADSVKGRFTISRDNSKNTLYLQMNSLRAEDTAVYYCARSANWHDTALDYWGQGTLVTVSS VL: DIQMTQSPSSLSASVGDRVTITCRASQSILSYLNWYQQKPGKAPKLVIYAVTSRASGVPSRFSGSGSGTDFTLTISSLQPEDFATYYCQQSYDSPLTFGGGTKVEIK

These binders were tested against human Fc (human) (assay: ELISA; negative control).

optical density [OD] | Binder
0.169 | 374_F02 (antibody, V domains shown) VH: EVQLLESGGGLVQPGGSLRLSCAASGFTFDSYSMNWVRQAPGKGLEWVANINYNSGYTSYADSVKGRFTISRDNSKNTLYLQMNSLRAEDTAVYYCARSANWHDTALDYWGQGTLVTVSS VL: DIQMTQSPSSLSASVGDRVTITCRASQSIVSYLNWYQQKPGKAPKLLIYAASSLQSGVPSRFSGSGSGTDFTLTISSLQPEDFATYYCQQSYELPLTFGGGTKVEIK
0.25 | 374_G06 (antibody, V domains shown) VH: EVQLLESGGGLVQPGGSLRLSCAASGFTFSSYGMHWVRQAPGKGLEWVASINYNGGYTSYADSVKGRFTISRDNSKNTLYLQMNSLRAEDTAVYYCARSANWHDTALDYWGQGTLVTVSS VL: DIQMTQSPSSLSASVGDRVTITCRASQSILSYLNWYQQKPGKAPKLLIYAVTSRASGVPSRFSGSGSGTDFTLTISSLQPEDFATYYCQQSYDLPLTFGGGTKVEIK
0.527 | 374_E02 (antibody, V domains shown) VH: EVQLLESGGGLVQPGGSLRLSCAASGFTFSSYSMNWVRQAPGKGLEWVSGINYNGGYTSYADSVKGRFTISRDNSKNTLYLQMNSLRAEDTAVYYCARSANWHDTALDYWGQGTLVTVSS VL: DIQMTQSPSSLSASVGDRVTITCRASQSILSYLNWYQQKPGKAPKLLIYAATSLASGVPSRFSGSGSGTDFTLTISSLQPEDFATYYCQQSYDLPLTFGGGTKVEIK
0.244 | 374_E05 (antibody, V domains shown) VH: EVQLLESGGGLVQPGGSLRLSCAASGFTFSSYSMNWVRQAPGKGLEWVAGINYNGGYTSYADSVKGRFTISRDNSKNTLYLQMNSLRAEDTAVYYCARSANWHDTALDYWGQGTLVTVSS VL: DIQMTQSPSSLSASVGDRVTITCRASQSILSFVNWYQQKPGKAPKLVIYAATSRASGVPSRFSGSGSGTDFTLTISSLQPEDFATYYCQQSYNLPLTFGGGTKVEIK
0.163 | 374_F04 (antibody, V domains shown) VH: EVQLLESGGGLVQPGGSLRLSCAASGFTFSSYGMNWVRQAPGKGLEWVSGINYNSGYKSYADSVKGRFTISRDNSKNTLYLQMNSLRAEDTAVYYCARSANWHDTALDYWGQGTLVTVSS VL: DIQMTQSPSSLSASVGDRVTITCRASQSILTYVNWYQQKPGKAPKLLIYAATSRASGVPSRFSGSGSGTDFTLTISSLQPEDFATYYCQQSYNSPLTFGGGTKVEIK
0.165 | 374_F01 (antibody, V domains shown) VH: EVQLLESGGGLVQPGGSLRLSCAASGFTFDSYSMNWVRQAPGKGLEWVSNINYNGGYTGYADSVKGRFTISRDNSKNTLYLQMNSLRAEDTAVYYCARSANWHDTALDYWGQGTLVTVSS VL: DIQMTQSPSSLSASVGDRVTITCRASQSILSYVNWYQQKPGKAPKLVIYAATSRHSGVPSRFSGSGSGTDFTLTISSLQPEDFATYYCQQSYENPLTFGGGTKVEIK
0.186 | 374_E11 (antibody, V domains shown) VH: EVQLLESGGGLVQPGGSLRLSCAASGFTFSSYGMNWVRQAPGKGLEWVSNINYNGGYTSYADSVKGRFTISRDNSKNTLYLQMNSLRAEDTAVYYCARSANWHDTALDYWGQGTLVTVSS VL: DIQMTQSPSSLSASVGDRVTITCRASQSIVTYLNWYQQKPGKAPKLVIYAATSRASGVPSRFSGSGSGTDFTLTISSLQPEDFATYYCQQSYDSPLTFGGGTKVEIK
0.191 | 374_F11 (antibody, V domains shown) VH: EVQLLESGGGLVQPGGSLRLSCAASGFTFDSYSMNWVRQAPGKGLEWVSNINYNGGYTGYADSVKGRFTISRDNSKNTLYLQMNSLRAEDTAVYYCARSANWHDTALDYWGQGTLVTVSS VL: DIQMTQSPSSLSASVGDRVTITCRASQSILSYLNWYQQKPGKAPKLLIYAVTSLASGVPSRFSGSGSGTDFTLTISSLQPEDFATYYCQQSYESPLTFGGGTKVEIK
0.251 | 374_E08 (antibody, V domains shown) VH: EVQLLESGGGLVQPGGSLRLSCAASGFTFSSYGMNWVRQAPGKGLEWVAGINYNGGYKSYADSVKGRFTISRDNSKNTLYLQMNSLRAEDTAVYYCARSANWHDTALDYWGQGTLVTVSS VL: DIQMTQSPSSLSASVGDRVTITCRASQSILSYLNWYQQKPGKAPKLLIYAATSRHSGVPSRFSGSGSGTDFTLTISSLQPEDFATYYCQQSYDLPLTFGGGTKVEIK
0.161 | 374_G04 (antibody, V domains shown) VH: EVQLLESGGGLVQPGGSLRLSCAASGFTFSSYSMNWVRQAPGKGLEWVAGINYNGGYTGYADSVKGRFTISRDNSKNTLYLQMNSLRAEDTAVYYCARSANWHDTALDYWGQGTLVTVSS VL: DIQMTQSPSSLSASVGDRVTITCRASQSILTYLNWYQQKPGKAPKLVIYAATSLASGVPSRFSGSGSGTDFTLTISSLQPEDFATYYCQQSYDNPLTFGGGTKVEIK
0.524 | 374_F10 (antibody, V domains shown) VH: EVQLLESGGGLVQPGGSLRLSCAASGFTFSSYSMNWVRQAPGKGLEWVSGINYNGGYTSYADSVKGRFTISRDNSKNTLYLQMNSLRAEDTAVYYCARSANWHDTALDYWGQGTLVTVSS VL: DIQMTQSPSSLSASVGDRVTITCRASQSILSYLNWYQQKPGKAPKLVIYAATSRASGVPSRFSGSGSGTDFTLTISSLQPEDFATYYCQQSYDNPLTFGGGTKVEIK
